Test results: article PMC6385319

Biological target: T1, mCherry-APPL1-delta-PTB
T1 sequence (Q9UKG1 whole entry, species assumed, looked up): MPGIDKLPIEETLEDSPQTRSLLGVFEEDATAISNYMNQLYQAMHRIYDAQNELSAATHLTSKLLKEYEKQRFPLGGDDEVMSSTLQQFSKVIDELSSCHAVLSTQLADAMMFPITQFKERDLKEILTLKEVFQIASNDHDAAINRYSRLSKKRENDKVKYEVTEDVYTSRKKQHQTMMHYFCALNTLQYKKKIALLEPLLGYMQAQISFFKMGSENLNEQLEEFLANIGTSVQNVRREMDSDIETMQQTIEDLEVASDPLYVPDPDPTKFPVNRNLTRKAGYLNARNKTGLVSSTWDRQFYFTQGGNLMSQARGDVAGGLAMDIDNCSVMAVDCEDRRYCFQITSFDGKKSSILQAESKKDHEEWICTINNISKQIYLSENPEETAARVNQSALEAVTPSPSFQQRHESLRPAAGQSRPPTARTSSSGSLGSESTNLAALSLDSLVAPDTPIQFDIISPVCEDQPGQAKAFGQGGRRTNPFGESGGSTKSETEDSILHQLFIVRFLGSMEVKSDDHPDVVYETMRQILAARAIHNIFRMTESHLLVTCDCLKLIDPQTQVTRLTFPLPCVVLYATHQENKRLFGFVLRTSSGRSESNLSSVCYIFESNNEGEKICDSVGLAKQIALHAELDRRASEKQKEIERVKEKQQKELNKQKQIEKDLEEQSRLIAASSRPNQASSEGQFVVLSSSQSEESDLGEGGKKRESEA
Assay: FRET or BRET; FRET/FLIM in live primary hippocampal neurons at DIV 7, 37 °C; GFP-Akt1 donor, mCherry fusion acceptor; donor lifetime measured in cell body and growth cone; untreated

Sequence of GFP-Akt1 (P31749 whole entry, the tested form may be a part): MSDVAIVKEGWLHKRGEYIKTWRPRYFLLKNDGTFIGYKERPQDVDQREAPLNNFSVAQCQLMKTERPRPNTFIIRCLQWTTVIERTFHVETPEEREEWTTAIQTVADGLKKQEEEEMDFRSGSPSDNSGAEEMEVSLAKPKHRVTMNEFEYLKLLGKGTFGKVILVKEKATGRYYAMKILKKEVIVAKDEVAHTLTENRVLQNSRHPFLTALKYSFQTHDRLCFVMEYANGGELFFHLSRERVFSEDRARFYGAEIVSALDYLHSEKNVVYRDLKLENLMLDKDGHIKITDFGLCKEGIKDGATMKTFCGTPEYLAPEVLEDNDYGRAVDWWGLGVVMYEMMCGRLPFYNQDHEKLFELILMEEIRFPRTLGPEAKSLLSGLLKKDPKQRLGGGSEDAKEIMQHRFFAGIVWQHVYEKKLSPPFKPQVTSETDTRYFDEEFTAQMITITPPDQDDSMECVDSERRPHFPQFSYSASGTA

**Q.** How did the FRET efficiency (growth cone) turn out when GFP-Akt1 (from UniProt P31749 1-480) was run?
**A.** < 1%
